The values below come from patent US12630600B2 (MEDIMMUNE LIMITED, priority 2022, dated 2026).

Starred links: 1 amine or outer side, 2 acyl side, 3 side chain; linkers in the order of their positions; H or OH if unused. Non-standard residues stand in square brackets, D forms with d. Groups on a side chain read outwards from the residue. No end group written: not given here. *: point of attachment. C18 diacid = O=C(O)CCCCCCCCCCCCCCCCC(=O)*; γGlu = O=C(O)[C@H](CCC(=O)[*:2])N[*:1]; αMeF = C[C@](N)(Cc1ccccc1)C(=O)O; AEEA = NCCOCCOCC(=O)O; Aib = CC(C)(N)C(=O)O

Common to all, as to assay: cell-based or functional assay
The target of test [1] is human GLP-1 receptor (human, UniProt P43220).
A further test addresses human glucagon receptor (human, UniProt P47871).
In test [2] the target is human GLP-1 receptor (human, UniProt P43220). The source holds these as a separate data set.

B1: Peptide 146 (peptide)
peptide: H[Aib]QGTFTSDVSK[αMeF]LDSK([AEEA-AEEA-γGlu-C18 diacid])RAQDFVRWLASR-OH
modifications: N-terminus assumed
SMILES: CC(C)C[C@H](NC(=O)[C@H](Cc1c[nH]c2ccccc12)NC(=O)[C@H](CCCNC(=N)N)NC(=O)[C@@H](NC(=O)[C@H](Cc1ccccc1)NC(=O)[C@H](CC(=O)O)NC(=O)[C@H](CCC(N)=O)NC(=O)[C@H](C)NC(=O)[C@H](CCCNC(=N)N)NC(=O)[C@H](CCCCNC(=O)COCCOCCNC(=O)COCCOCCNC(=O)CC[C@H](NC(=O)CCCCCCCCCCCCCCCCC(=O)O)C(=O)O)NC(=O)[C@H](CO)NC(=O)[C@H](CC(=O)O)NC(=O)[C@H](CC(C)C)NC(=O)[C@](C)(Cc1ccccc1)NC(=O)[C@H](CCCCN)NC(=O)[C@H](CO)NC(=O)[C@@H](NC(=O)[C@H](CC(=O)O)NC(=O)[C@H](CO)NC(=O)[C@@H](NC(=O)[C@H](Cc1ccccc1)NC(=O)[C@@H](NC(=O)CNC(=O)[C@H](CCC(N)=O)NC(=O)C(C)(C)NC(=O)[C@@H](N)Cc1c[nH]cn1)[C@@H](C)O)[C@@H](C)O)C(C)C)C(C)C)C(=O)N[C@@H](C)C(=O)N[C@@H](CO)C(=O)N[C@@H](CCCNC(=N)N)C(=O)O
For B1, in the test with human GLP-1 receptor [1], the “cAMP production, hGLP-1R EC50 (pM)” value is 24.6 pM. Further, the “cAMP production, hGluc-R EC50 (pM)” value with human glucagon receptor turned out to be 1630 pM.

B2: Peptide 145 (peptide)
peptide: H[Aib]QGTFTSDVSK[αMeF]LDSK([AEEA-AEEA-γGlu-C18 diacid])RAQDFVRWLASRGI-OH
modifications: N-terminus assumed
SMILES: CC[C@H](C)[C@H](NC(=O)CNC(=O)[C@H](CCCNC(=N)N)NC(=O)[C@H](CO)NC(=O)[C@H](C)NC(=O)[C@H](CC(C)C)NC(=O)[C@H](Cc1c[nH]c2ccccc12)NC(=O)[C@H](CCCNC(=N)N)NC(=O)[C@@H](NC(=O)[C@H](Cc1ccccc1)NC(=O)[C@H](CC(=O)O)NC(=O)[C@H](CCC(N)=O)NC(=O)[C@H](C)NC(=O)[C@H](CCCNC(=N)N)NC(=O)[C@H](CCCCNC(=O)COCCOCCNC(=O)COCCOCCNC(=O)CC[C@H](NC(=O)CCCCCCCCCCCCCCCCC(=O)O)C(=O)O)NC(=O)[C@H](CO)NC(=O)[C@H](CC(=O)O)NC(=O)[C@H](CC(C)C)NC(=O)[C@](C)(Cc1ccccc1)NC(=O)[C@H](CCCCN)NC(=O)[C@H](CO)NC(=O)[C@@H](NC(=O)[C@H](CC(=O)O)NC(=O)[C@H](CO)NC(=O)[C@@H](NC(=O)[C@H](Cc1ccccc1)NC(=O)[C@@H](NC(=O)CNC(=O)[C@H](CCC(N)=O)NC(=O)C(C)(C)NC(=O)[C@@H](N)Cc1c[nH]cn1)[C@@H](C)O)[C@@H](C)O)C(C)C)C(C)C)C(=O)O
As to B2, the “cAMP production, hGLP-1R EC50 (pM)” value in the test with human GLP-1 receptor [1] was 22.6 pM. The “cAMP production, hGluc-R EC50 (pM)” value in the test with human glucagon receptor is 4590 pM.

B3: Peptide 143 (peptide)
peptide: H[Aib]QGTFTSDVSK[αMeF]LDSK([AEEA-AEEA-γGlu-C18 diacid])RARDFVQWLLE[Aib]G-OH
modifications: N-terminus assumed
SMILES: CC(C)C[C@H](NC(=O)[C@H](Cc1c[nH]c2ccccc12)NC(=O)[C@H](CCC(N)=O)NC(=O)[C@@H](NC(=O)[C@H](Cc1ccccc1)NC(=O)[C@H](CC(=O)O)NC(=O)[C@H](CCCNC(=N)N)NC(=O)[C@H](C)NC(=O)[C@H](CCCNC(=N)N)NC(=O)[C@H](CCCCNC(=O)COCCOCCNC(=O)COCCOCCNC(=O)CC[C@H](NC(=O)CCCCCCCCCCCCCCCCC(=O)O)C(=O)O)NC(=O)[C@H](CO)NC(=O)[C@H](CC(=O)O)NC(=O)[C@H](CC(C)C)NC(=O)[C@](C)(Cc1ccccc1)NC(=O)[C@H](CCCCN)NC(=O)[C@H](CO)NC(=O)[C@@H](NC(=O)[C@H](CC(=O)O)NC(=O)[C@H](CO)NC(=O)[C@@H](NC(=O)[C@H](Cc1ccccc1)NC(=O)[C@@H](NC(=O)CNC(=O)[C@H](CCC(N)=O)NC(=O)C(C)(C)NC(=O)[C@@H](N)Cc1c[nH]cn1)[C@@H](C)O)[C@@H](C)O)C(C)C)C(C)C)C(=O)N[C@@H](CC(C)C)C(=O)N[C@@H](CCC(=O)O)C(=O)NC(C)(C)C(=O)NCC(=O)O
Regarding B3, the “cAMP production, hGLP-1R EC50 (pM)” value with human GLP-1 receptor [1] amounted to 19.1 pM. For the same molecule, the “cAMP production, hGluc-R EC50 (pM)” value with human glucagon receptor came to 32.6 pM.

For the molecule H[Aib]HGS[αMeF]TSDVSK[αMeF]LDSR[Aib]AK([AEEA-AEEA-γGlu-γGlu-C18 diacid])D[αMeF]VESIANT-NH2 [Peptide 250], in the test with human GLP-1 receptor [2], the “hGLP-1R EC50 (pM)” value was 601 pM.

B4: Peptide 149 (peptide)
peptide: H[Aib]QGTFTSDVSK[αMeF]LDSK([AEEA-AEEA-γGlu-C18 diacid])RAQDFVRWVVE[Aib]G-OH
modifications: N-terminus assumed
SMILES: CC(C)C[C@H](NC(=O)[C@](C)(Cc1ccccc1)NC(=O)[C@H](CCCCN)NC(=O)[C@H](CO)NC(=O)[C@@H](NC(=O)[C@H](CC(=O)O)NC(=O)[C@H](CO)NC(=O)[C@@H](NC(=O)[C@H](Cc1ccccc1)NC(=O)[C@@H](NC(=O)CNC(=O)[C@H](CCC(N)=O)NC(=O)C(C)(C)NC(=O)[C@@H](N)Cc1c[nH]cn1)[C@@H](C)O)[C@@H](C)O)C(C)C)C(=O)N[C@@H](CC(=O)O)C(=O)N[C@@H](CO)C(=O)N[C@@H](CCCCNC(=O)COCCOCCNC(=O)COCCOCCNC(=O)CC[C@H](NC(=O)CCCCCCCCCCCCCCCCC(=O)O)C(=O)O)C(=O)N[C@@H](CCCNC(=N)N)C(=O)N[C@@H](C)C(=O)N[C@@H](CCC(N)=O)C(=O)N[C@@H](CC(=O)O)C(=O)N[C@@H](Cc1ccccc1)C(=O)N[C@H](C(=O)N[C@@H](CCCNC(=N)N)C(=O)N[C@@H](Cc1c[nH]c2ccccc12)C(=O)N[C@H](C(=O)N[C@H](C(=O)N[C@@H](CCC(=O)O)C(=O)NC(C)(C)C(=O)NCC(=O)O)C(C)C)C(C)C)C(C)C
Regarding B4, the “cAMP production, hGLP-1R EC50 (pM)” value with human GLP-1 receptor [1] was 8.71 pM. Moreover, the “cAMP production, hGluc-R EC50 (pM)” value in the test with human glucagon receptor was found to be 2650 pM.

B5: Peptide 144 (peptide)
peptide: H[Aib]QGTFTSDVSK[αMeF]LDSK([γGlu-γGlu-AEEA-AEEA-γGlu-γGlu-C18 diacid])RARDFVRWLLE[Aib]G-OH
modifications: N-terminus assumed
SMILES: CC(C)C[C@H](NC(=O)[C@H](Cc1c[nH]c2ccccc12)NC(=O)[C@H](CCCNC(=N)N)NC(=O)[C@@H](NC(=O)[C@H](Cc1ccccc1)NC(=O)[C@H](CC(=O)O)NC(=O)[C@H](CCCNC(=N)N)NC(=O)[C@H](C)NC(=O)[C@H](CCCNC(=N)N)NC(=O)[C@H](CCCCNC(=O)CC[C@H](NC(=O)CC[C@H](NC(=O)COCCOCCNC(=O)COCCOCCNC(=O)CC[C@H](NC(=O)CC[C@H](NC(=O)CCCCCCCCCCCCCCCCC(=O)O)C(=O)O)C(=O)O)C(=O)O)C(=O)O)NC(=O)[C@H](CO)NC(=O)[C@H](CC(=O)O)NC(=O)[C@H](CC(C)C)NC(=O)[C@](C)(Cc1ccccc1)NC(=O)[C@H](CCCCN)NC(=O)[C@H](CO)NC(=O)[C@@H](NC(=O)[C@H](CC(=O)O)NC(=O)[C@H](CO)NC(=O)[C@@H](NC(=O)[C@H](Cc1ccccc1)NC(=O)[C@@H](NC(=O)CNC(=O)[C@H](CCC(N)=O)NC(=O)C(C)(C)NC(=O)[C@@H](N)Cc1c[nH]cn1)[C@@H](C)O)[C@@H](C)O)C(C)C)C(C)C)C(=O)N[C@@H](CC(C)C)C(=O)N[C@@H](CCC(=O)O)C(=O)NC(C)(C)C(=O)NCC(=O)O
For B5, the “cAMP production, hGLP-1R EC50 (pM)” value with human GLP-1 receptor [1] worked out at 45.2 pM. Also, in the test with human glucagon receptor, the “cAMP production, hGluc-R EC50 (pM)” value came to 702 pM.

B6: Peptide 148 (peptide)
peptide: H[Aib]QGTFTSDVSK[αMeF]LDSK([AEEA-AEEA-γGlu-C18 diacid])RAQDFVRWIAE[Aib]G-OH
modifications: N-terminus assumed
SMILES: CC[C@H](C)[C@H](NC(=O)[C@H](Cc1c[nH]c2ccccc12)NC(=O)[C@H](CCCNC(=N)N)NC(=O)[C@@H](NC(=O)[C@H](Cc1ccccc1)NC(=O)[C@H](CC(=O)O)NC(=O)[C@H](CCC(N)=O)NC(=O)[C@H](C)NC(=O)[C@H](CCCNC(=N)N)NC(=O)[C@H](CCCCNC(=O)COCCOCCNC(=O)COCCOCCNC(=O)CC[C@H](NC(=O)CCCCCCCCCCCCCCCCC(=O)O)C(=O)O)NC(=O)[C@H](CO)NC(=O)[C@H](CC(=O)O)NC(=O)[C@H](CC(C)C)NC(=O)[C@](C)(Cc1ccccc1)NC(=O)[C@H](CCCCN)NC(=O)[C@H](CO)NC(=O)[C@@H](NC(=O)[C@H](CC(=O)O)NC(=O)[C@H](CO)NC(=O)[C@@H](NC(=O)[C@H](Cc1ccccc1)NC(=O)[C@@H](NC(=O)CNC(=O)[C@H](CCC(N)=O)NC(=O)C(C)(C)NC(=O)[C@@H](N)Cc1c[nH]cn1)[C@@H](C)O)[C@@H](C)O)C(C)C)C(C)C)C(=O)N[C@@H](C)C(=O)N[C@@H](CCC(=O)O)C(=O)NC(C)(C)C(=O)NCC(=O)O
In the case of B6, the “cAMP production, hGLP-1R EC50 (pM)” value with human GLP-1 receptor [1] came out at 40.2 pM. Also, in the test with human glucagon receptor, the “cAMP production, hGluc-R EC50 (pM)” value was 568 pM.

B7: Peptide 147 (peptide)
peptide: H[Aib]QGTFTSDVSK[αMeF]LDSK([AEEA-AEEA-γGlu-C18 diacid])RAQDFVRWLEA[Aib]G-OH
modifications: N-terminus assumed
SMILES: CC(C)C[C@H](NC(=O)[C@H](Cc1c[nH]c2ccccc12)NC(=O)[C@H](CCCNC(=N)N)NC(=O)[C@@H](NC(=O)[C@H](Cc1ccccc1)NC(=O)[C@H](CC(=O)O)NC(=O)[C@H](CCC(N)=O)NC(=O)[C@H](C)NC(=O)[C@H](CCCNC(=N)N)NC(=O)[C@H](CCCCNC(=O)COCCOCCNC(=O)COCCOCCNC(=O)CC[C@H](NC(=O)CCCCCCCCCCCCCCCCC(=O)O)C(=O)O)NC(=O)[C@H](CO)NC(=O)[C@H](CC(=O)O)NC(=O)[C@H](CC(C)C)NC(=O)[C@](C)(Cc1ccccc1)NC(=O)[C@H](CCCCN)NC(=O)[C@H](CO)NC(=O)[C@@H](NC(=O)[C@H](CC(=O)O)NC(=O)[C@H](CO)NC(=O)[C@@H](NC(=O)[C@H](Cc1ccccc1)NC(=O)[C@@H](NC(=O)CNC(=O)[C@H](CCC(N)=O)NC(=O)C(C)(C)NC(=O)[C@@H](N)Cc1c[nH]cn1)[C@@H](C)O)[C@@H](C)O)C(C)C)C(C)C)C(=O)N[C@@H](CCC(=O)O)C(=O)N[C@@H](C)C(=O)NC(C)(C)C(=O)NCC(=O)O
In the case of B7, in the test with human GLP-1 receptor [1], the “cAMP production, hGLP-1R EC50 (pM)” value worked out at 15.3 pM. Also, the “cAMP production, hGluc-R EC50 (pM)” value with human glucagon receptor is 43.5 pM.
